Target: trkB with a gD tag expressed on CHO cells
Assay: cell-based or functional assay

B1: recombinant human NT-4/5 (rhNT-4/5), correctly folded, intact, purified from E. coli (ligand)
chain: GVSETAPASRRGELAVCDAVSGWVTDRRTAVDLRGREVEVLGEVPAAGGSPLRQYFFETRCKADNAEEGGPGAGGGGCRGVDRRHWVSECKAKQSYVRALTAHAQGRVGWRWIRIDTACVCTLLSRTGRA
  EC50, kinase receptor activation (KIRA) assay: 0.0126 µg/mL
